Measurements taken from patent US20220389118A1 (Chugai, published 2022).
Substitutions are numbered along the chain they refer to.

T1: soluble human IL-6 receptor (human, UniProt P08887 20-357)
T1 construct: also called hsIL-6R
T1 sequence: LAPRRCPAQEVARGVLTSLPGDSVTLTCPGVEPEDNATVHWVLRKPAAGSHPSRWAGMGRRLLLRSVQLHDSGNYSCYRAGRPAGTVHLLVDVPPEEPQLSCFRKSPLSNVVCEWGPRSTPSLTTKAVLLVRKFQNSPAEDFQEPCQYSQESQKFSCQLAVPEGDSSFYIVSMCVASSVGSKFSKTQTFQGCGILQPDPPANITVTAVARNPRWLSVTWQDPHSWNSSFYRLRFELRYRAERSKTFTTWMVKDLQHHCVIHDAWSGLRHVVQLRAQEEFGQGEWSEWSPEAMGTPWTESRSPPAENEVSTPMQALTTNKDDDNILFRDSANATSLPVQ

T2: human FcγRIIb extracellular domain with C-terminal His tag (human, UniProt P31994 43-217)
T2 construct: extracellular domain
T2 sequence (looked up): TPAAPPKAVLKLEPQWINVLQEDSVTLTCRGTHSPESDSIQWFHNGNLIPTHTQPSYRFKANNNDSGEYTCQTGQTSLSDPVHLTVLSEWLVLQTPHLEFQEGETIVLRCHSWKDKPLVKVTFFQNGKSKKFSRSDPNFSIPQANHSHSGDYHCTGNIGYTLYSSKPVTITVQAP

T3: human FcγRIIa type R extracellular domain with C-terminal His tag (human, UniProt P12318 34-217)
T3 construct: extracellular domain; also called FcγRIIaR; FcγRIIa(R)
T3 sequence (looked up): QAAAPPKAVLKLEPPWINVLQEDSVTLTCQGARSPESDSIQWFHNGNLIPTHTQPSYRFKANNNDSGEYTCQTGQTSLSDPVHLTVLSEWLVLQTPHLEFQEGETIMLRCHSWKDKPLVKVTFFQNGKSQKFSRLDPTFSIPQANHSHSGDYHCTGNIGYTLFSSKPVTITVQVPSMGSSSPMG

T4: human FcγRIIb extracellular domain (human, UniProt P31994 43-217)
T4 construct: also called FcγIIB; not shown: His tag at the C terminus
T4 sequence: T2 sequence (looked up)

T5: human FcγRIIa type R extracellular domain (human, UniProt P12318 34-217)
T5 construct: also called FcγRIIaR; FcγRIIa(R); not shown: His tag at the C terminus
T5 chain: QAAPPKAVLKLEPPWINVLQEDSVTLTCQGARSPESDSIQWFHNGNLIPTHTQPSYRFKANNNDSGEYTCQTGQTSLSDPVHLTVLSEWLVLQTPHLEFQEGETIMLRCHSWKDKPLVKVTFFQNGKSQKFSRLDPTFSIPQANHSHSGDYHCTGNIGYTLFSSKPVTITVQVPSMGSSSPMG

B1: tocilizumab (antibody, human IgG1, kappa)
heavy: not shown
light: not shown
notes: also called anti-IL-6R antibody (tocilizumab)
B2: 6RC1IgG_012 (antibody, V domains shown)
VH: QVQLVQSGAEVKKPGASVKVSCKASGYTFTSYGISWVRQAPGQGLEWMGWISAYNGNTNYAQKLQGRVTMTTDTSTSTAYMELRSLRSDDTAVYYCARATYYYDSSAPAFDIWGQGTMVTVSS
VL: DIQMTQSPSSLSASVGDRVTITCRASQSIEDDLAWYQQKPGKAPKLLIYEASTLQSGVPSRFSGSGSGTDFTLTISSLQPEDFATYYCQQHDDSPLTFGQGTKVEIKR
B3: 6RC1IgG_019 (antibody, V domains shown)
VH: EVQLVQSGAEVKKPGSSVKVSCKASGGTFSSYAISWVRQAPGQGLEWMGGIIPIFGTANYAQKFQGRVTITADESTSTAYMELSSLRSEDTAVYYCARDRGSGFNWGNYAFDIWGQGFSVTVSS
VL: B2 VL with T53N, H91Y, D93R, S94Y, L96Y
B4: 6RC1IgG_010 (antibody, V domains shown)
VH: QVQLVQSGAEVKKPGSSVKVSCKASGGTFSSYAISWVRQAPGQGLEWMGGIIPIFGTANYAQKFQGRVTITADESTSTAYMELSSLRSEDTAVYYCARAAFLEWPIWGSEYFQHWGQGTLVTVSS
VL: B2 VL with E50H, T53S, H91R, D93S, S94Y
B5: IL6R-BP492/IL6R-L (antibody, human IgG1, kappa)
heavy: QVQLQESGPGLVKPSETLSLTCAVSGHSISHDHAWSWVRQPPGEGLEWIGFISYSGITNYNPSLQGRVTISRDNSKNTLYLQMNSLRAEDTAVYYCARSLARTTAMDYWGEGTLVTVSSASTKGPSVFPLAPSSKSTSGGTAALGCLVKDYFPEPVTVSWNSGALTSGVHTFPAVLQSSGLYSLSSVVTVPSSSLGTQTYICNVNHKPSNTKVDKKVEPKSCDKTHTCPPCPAPELLGGDSVFLFPPKPKDTLMISRTPEVTCVVIDVAEEDGEVKFNWYVDGVEVHNAKTKPREEQYNSTYRVVSVLTVLHQDWLNGKEYKCKVSNKALPAPIEKTISKAKGQPREPQVYTLPPSRDELTKNQVSLTCLVKGFYPSDIAVEWESNGQPENNYKTTPPVLDSDGSFFLYSKLTVDKSRWQQGNVFSCSVMHEALHNHYTQESLSLSP
light: not shown
notes: copies: 2 + 2
B6: IL6R-BP557/IL6R-L (antibody, human IgG1, kappa)
heavy: B5 heavy with G239D, I266V, A269G, E270D, Y298D, A332R
light: not shown
notes: copies: 2 + 2
B7: IL6R-BP559/IL6R-L (antibody, human IgG1, kappa)
heavy: B5 heavy with E274D, Y298D
light: not shown
notes: copies: 2 + 2
B8: IL6R-BP493/IL6R-L (antibody, human IgG1, kappa)
heavy: B5 heavy with Y298D
light: not shown
notes: copies: 2 + 2
B9: IL6R-BP500/IL6R-L (antibody, human IgG1, kappa)
heavy: B5 heavy with G239D, Y298D
light: not shown
notes: copies: 2 + 2
B10: IL6R-BP564/IL6R-L (antibody, human IgG1, kappa)
heavy: B5 heavy with G239D, I266V, A269S, E274D, Y298D, A332R
light: not shown
notes: copies: 2 + 2
B11: IL6R-BP560/IL6R-L (antibody, human IgG1, kappa)
heavy: B5 heavy with I266V, A269G, Y298D, A332R
light: not shown
notes: anti-human IL-6 receptor IgG1 variant; copies: 2 + 2
B12: IL6R-BP562/IL6R-L (antibody, human IgG1, kappa)
heavy: B5 heavy with G239D, I266V, A269S, E270D, E274D, Y298D, A332R
light: not shown
notes: copies: 2 + 2

The binders below were run against T1, soluble human IL-6 receptor (assay: SPR (Biacore T100), antibody captured on a Protein A/G chip (CM5), human IL-6 receptor as analyte, 1.2 mM CaCl2, pH 7.4, 37 °C).
Description: The interaction was analyzed in solutions at 1.2 mM and 3 μM calcium ion concentration, corresponding to high and low calcium ion concentration conditions, respectively. An appropriate amount of Protein A/G (Invitrogen) was immobilized onto a Sensor chip CM5 (GE Healthcare) by an amino coupling method, and antibodies of interest were captured onto the chip. The two types of running buffers used were: 20 mM ACES/150 mM NaCl/0.05% (w/v) Tween20/1.2 mM CaCl₂ (pH 7.4); and 20 mM ACES/150 mM NaCl/0.05% (w/v) Tween20/3 μM CaCl₂ (pH 7.4). These buffers were each used to dilute human IL-6 receptor. All measurements were carried out at 37° C.
Then, 10 mM glycine-HCl (pH 1.5) was injected at a flow rate of 30 μl/min for 30 seconds to regenerate the sensor chip.
B1: binds.
B2: binds.
B3: binds.
B4: binds.

These binders were tested against T2, human FcγRIIb extracellular domain with … (assay: SPR (Biacore); worded summary of Table 28).
With B5 the “FcγRIIb-binding activity as compared to IL6R-B3/IL6R-L” value was no less than 100 times.
With B6 the “FcγRIIb-binding activity as compared to IL6R-B3/IL6R-L” value was no less than 100 times.
In the case of B7, the “FcγRIIb-binding activity as compared to IL6R-B3/IL6R-L” value is reported as no less than 100 times.
For B8, the “FcγRIIb-binding activity as compared to IL6R-B3/IL6R-L” value was no less than 100 times.
B9 was tested, and the “FcγRIIb-binding activity as compared to IL6R-B3/IL6R-L” value was no less than 100 times.

The binders below were run against T3, human FcγRIIa type R extracellular … (assay: SPR (Biacore); worded summary of Table 28).
In the case of B5, the “FcγRIIaR binding as compared to IL6R-B3/IL6R-L” value is reported as no more than 1.5 times.
B6 was tested, and the “FcγRIIaR binding as compared to IL6R-B3/IL6R-L” value was no more than 1.5 times.
In the case of B7, the “FcγRIIaR binding as compared to IL6R-B3/IL6R-L” value is reported as no more than 1.5 times.
B8 was tested, and the “FcγRIIaR binding as compared to IL6R-B3/IL6R-L” value was no more than 1.5 times.
With B9 the “FcγRIIaR binding as compared to IL6R-B3/IL6R-L” value was no more than 1.5 times.

These binders were tested against T4, human FcγRIIb extracellular domain (assay: SPR (Biacore), antibody captured on chip, FcγR extracellular domain as analyte, 25 C).
B10 gave a Kd of 22 nM.
B11 showed a Kd of 180 nM.
B12 was tested, and the Kd was 24 nM.

Each binder was assayed against T6, human FcγRIa extracellular domain (human, UniProt P12314 16-292) in the same assay as above.
T6 construct: also called CD64; not shown: His tag at the C terminus
T6 sequence (P12314 16-292): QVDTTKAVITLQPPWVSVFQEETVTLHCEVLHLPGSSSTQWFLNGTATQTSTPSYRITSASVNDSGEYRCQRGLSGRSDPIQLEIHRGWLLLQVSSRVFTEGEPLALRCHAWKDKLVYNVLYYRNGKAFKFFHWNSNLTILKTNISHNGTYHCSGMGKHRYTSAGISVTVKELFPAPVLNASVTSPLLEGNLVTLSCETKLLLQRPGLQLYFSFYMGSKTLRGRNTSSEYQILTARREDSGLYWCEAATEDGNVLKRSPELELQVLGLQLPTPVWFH
Work on B10 yielded a Kd of 31 nM.
In the case of B11, the Kd is reported as 5.6 nM.
Work on B12 yielded a Kd of 25 nM.

Target: T5, human FcγRIIa type R extracellular …
Test: as above
In the case of B10, the Kd is reported as 580 nM.
Work on B11 yielded a Kd of 4200 nM.
Work on B12 yielded a Kd of 680 nM.

Each binder was assayed against T4, human FcγRIIb extracellular domain (assay: fold against IL6R-B3/IL6R-L, from SPR KD values).
For B10, the “KD(IIb) of the parent polypeptide/KD(IIb) of the altered polypeptide” value (“KD(IIb) … of the altered polypeptide” below) was 141.
For B11, the “KD(IIb) … of the altered polypeptide” value was 16.8.
B12 was tested, and the “KD(IIb) … of the altered polypeptide” value was 131.

Target: T5, human FcγRIIa type R extracellular …
Test: fold against IL6R-B3/IL6R-L, from SPR KD values
With B10 the “KD(IIaR) of the parent polypeptide/KD(IIaR) of the altered polypeptide” value (“KD(IIaR) … of the altered polypeptide” below) was 1.9.
With B11 the “KD(IIaR) … of the altered polypeptide” value was 0.3.
In the case of B12, the “KD(IIaR) … of the altered polypeptide” value is reported as 1.6.

Each binder was assayed against T2, human FcγRIIb extracellular domain with … (assay: SPR (Biacore)).
B5 showed a Kd of 24 nM.
Work on B6 yielded a Kd of 20 nM.
B7 was tested, and the Kd was 28 nM.
B8 gave a Kd of 21 nM.
B9 showed a Kd of 24 nM.

Each binder was assayed against T3, human FcγRIIa type R extracellular … (assay: SPR (Biacore)).
Binder B5 has a Kd of 920 nM.
B6 showed a Kd of 850 nM.
B7 gave a Kd of 1600 nM.
B9 showed a Kd of 720 nM.

What follows are binders tested against T7, human FcγRIa extracellular domain with C-terminal His tag (human, UniProt P12314 16-292) (assay: SPR (Biacore)).
T7 construct: extracellular domain
T7 sequence (P12314 16-292): as above
Work on B5 yielded a Kd of 0.79 nM.
Binder B7 has a Kd of 1.1 nM.
B8 was tested, and the Kd was 0.82 nM.
B9 was tested, and the Kd was 2.3 nM.

Each binder was assayed against T2, human FcγRIIb extracellular domain with … (assay: SPR (Biacore), parent IL6R-B3/IL6R-L).
For B5, the “KD(IIb) parent/KD(IIb) altered polypeptide” value was 131.
In the case of B7, the “KD(IIb) parent/KD(IIb) altered polypeptide” value is reported as 110.
For B9, the “KD(IIb) parent/KD(IIb) altered polypeptide” value was 128.

These binders were tested against T3, human FcγRIIa type R extracellular … (assay: SPR (Biacore), parent IL6R-B3/IL6R-L).
B5 was tested, and the “KD(IIaR) parent/KD(IIaR) altered polypeptide” value was 1.2.
With B7 the “KD(IIaR) parent/KD(IIaR) altered polypeptide” value was 0.7.
B9 was tested, and the “KD(IIaR) parent/KD(IIaR) altered polypeptide” value was 1.5.

These binders were tested against T4, human FcγRIIb extracellular domain (assay: ratio of the SPR KD for FcγRIIaH to the KD for FcγRIIb (selectivity)).
With B10 the “KD(IIaH)/KD(IIb)” value was 454.
In the case of B11, the “KD(IIaH)/KD(IIb)” value is reported as 168.
For B12, the “KD(IIaH)/KD(IIb)” value was 466.

What follows are binders tested against T4, human FcγRIIb extracellular domain (assay: ratio of the SPR KD for FcγRIIaR to the KD for FcγRIIb (selectivity)).
B10 was tested, and the “KD(IIaR)/KD(IIb)” value was 26.2.
B11 was tested, and the “KD(IIaR)/KD(IIb)” value was 22.8.
In the case of B12, the “KD(IIaR)/KD(IIb)” value is reported as 29.

These binders were tested against T2, human FcγRIIb extracellular domain with … (assay: SPR (Biacore), ratio of KDs).
In the case of B5, the “KD(IIaH)/KD(IIb)” value is reported as 678 and the “KD(IIaR)/KD(IIb)” value is reported as 38.8.
With B7 the “KD(IIaH)/KD(IIb)” value was 712 and the “KD(IIaR)/KD(IIb)” value was 58.4.
B9 was tested, and the “KD(IIaH)/KD(IIb)” value was 1030 and the “KD(IIaR)/KD(IIb)” value was 29.9.
